Data reported in patent publication US20140213513A1 (Sanofi, priority 2012, published 2014).
*1 amine or outer side, *2 acyl side, *3 side chain or, on linkers, in order; H or OH if unused. Where no end group is shown, it is not given here. Side-chain parts run from the residue outwards. [ ]: non-standard residue; d: D form. The star is where a group is joined. γGlu = O=C(O)[C@H](CCC(=O)[*:2])N[*:1]; Stearoyl = CCCCCCCCCCCCCCCCCC(=O)*; Palmitoyl = CCCCCCCCCCCCCCCC(=O)*; Aib = CC(C)(N)C(=O)O

T1: human GIP receptor (human, UniProt P48546 22-466)
T1 sequence (looked up): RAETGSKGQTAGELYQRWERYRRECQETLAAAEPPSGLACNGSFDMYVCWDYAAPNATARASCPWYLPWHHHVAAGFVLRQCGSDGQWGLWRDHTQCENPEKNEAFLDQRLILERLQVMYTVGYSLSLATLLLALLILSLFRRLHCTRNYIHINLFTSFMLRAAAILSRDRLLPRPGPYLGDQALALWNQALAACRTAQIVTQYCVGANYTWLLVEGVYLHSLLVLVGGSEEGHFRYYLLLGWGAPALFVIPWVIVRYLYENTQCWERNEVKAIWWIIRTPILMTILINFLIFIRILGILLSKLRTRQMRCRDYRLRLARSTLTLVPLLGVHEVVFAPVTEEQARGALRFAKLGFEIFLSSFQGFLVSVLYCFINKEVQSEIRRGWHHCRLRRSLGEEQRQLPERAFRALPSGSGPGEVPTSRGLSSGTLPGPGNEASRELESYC

B1: exendin-4 peptide analogue SEQ ID NO: 12 (peptide)
peptide: Y[Aib]QGTFTSDLSIQK([γGlu-Palmitoyl])EKAAA[Aib]EFIEWLKNTGPSSGAPPPS-NH2
modifications: N-terminus assumed
SMILES: CCCCCCCCCCCCCCCC(=O)N[C@@H](CCC(=O)NCCCC[C@H](NC(=O)[C@H](CCC(N)=O)NC(=O)[C@@H](NC(=O)[C@H](CO)NC(=O)[C@H](CC(C)C)NC(=O)[C@H](CC(=O)O)NC(=O)[C@H](CO)NC(=O)[C@@H](NC(=O)[C@H](Cc1ccccc1)NC(=O)[C@@H](NC(=O)CNC(=O)[C@H](CCC(N)=O)NC(=O)C(C)(C)NC(=O)[C@@H](N)Cc1ccc(O)cc1)[C@@H](C)O)[C@@H](C)O)[C@@H](C)CC)C(=O)N[C@@H](CCC(=O)O)C(=O)N[C@@H](CCCCN)C(=O)N[C@@H](C)C(=O)N[C@@H](C)C(=O)N[C@@H](C)C(=O)NC(C)(C)C(=O)N[C@@H](CCC(=O)O)C(=O)N[C@@H](Cc1ccccc1)C(=O)N[C@H](C(=O)N[C@@H](CCC(=O)O)C(=O)N[C@@H](Cc1c[nH]c2ccccc12)C(=O)N[C@@H](CC(C)C)C(=O)N[C@@H](CCCCN)C(=O)N[C@@H](CC(N)=O)C(=O)N[C@H](C(=O)NCC(=O)N1CCC[C@H]1C(=O)N[C@@H](CO)C(=O)N[C@@H](CO)C(=O)NCC(=O)N[C@@H](C)C(=O)N1CCC[C@H]1C(=O)N1CCC[C@H]1C(=O)N1CCC[C@H]1C(=O)N[C@@H](CO)C(N)=O)[C@@H](C)O)[C@@H](C)CC)C(=O)O
B2: exendin-4 peptide analogue SEQ ID NO: 64 (peptide)
peptide: Y[Aib]EGTFTSDLSIQK([γGlu-Stearoyl])EERAVRLFIEWLKAGGPSSGAPPPS-NH2
modifications: N-terminus assumed
SMILES: CCCCCCCCCCCCCCCCCC(=O)N[C@@H](CCC(=O)NCCCC[C@H](NC(=O)[C@H](CCC(N)=O)NC(=O)[C@@H](NC(=O)[C@H](CO)NC(=O)[C@H](CC(C)C)NC(=O)[C@H](CC(=O)O)NC(=O)[C@H](CO)NC(=O)[C@@H](NC(=O)[C@H](Cc1ccccc1)NC(=O)[C@@H](NC(=O)CNC(=O)[C@H](CCC(=O)O)NC(=O)C(C)(C)NC(=O)[C@@H](N)Cc1ccc(O)cc1)[C@@H](C)O)[C@@H](C)O)[C@@H](C)CC)C(=O)N[C@@H](CCC(=O)O)C(=O)N[C@@H](CCC(=O)O)C(=O)N[C@@H](CCCNC(=N)N)C(=O)N[C@@H](C)C(=O)N[C@H](C(=O)N[C@@H](CCCNC(=N)N)C(=O)N[C@@H](CC(C)C)C(=O)N[C@@H](Cc1ccccc1)C(=O)N[C@H](C(=O)N[C@@H](CCC(=O)O)C(=O)N[C@@H](Cc1c[nH]c2ccccc12)C(=O)N[C@@H](CC(C)C)C(=O)N[C@@H](CCCCN)C(=O)N[C@@H](C)C(=O)NCC(=O)NCC(=O)N1CCC[C@H]1C(=O)N[C@@H](CO)C(=O)N[C@@H](CO)C(=O)NCC(=O)N[C@@H](C)C(=O)N1CCC[C@H]1C(=O)N1CCC[C@H]1C(=O)N1CCC[C@H]1C(=O)N[C@@H](CO)C(N)=O)[C@@H](C)CC)C(C)C)C(=O)O
B3: exendin-4 peptide analogue SEQ ID NO: 11 (peptide)
peptide: Y[Aib]QGTFTSDLSIQK([γGlu-Palmitoyl])EKR[Aib]A[Aib]EFIEWLKNTGPSSGAPPPS-NH2
modifications: N-terminus assumed
SMILES: CCCCCCCCCCCCCCCC(=O)N[C@@H](CCC(=O)NCCCC[C@H](NC(=O)[C@H](CCC(N)=O)NC(=O)[C@@H](NC(=O)[C@H](CO)NC(=O)[C@H](CC(C)C)NC(=O)[C@H](CC(=O)O)NC(=O)[C@H](CO)NC(=O)[C@@H](NC(=O)[C@H](Cc1ccccc1)NC(=O)[C@@H](NC(=O)CNC(=O)[C@H](CCC(N)=O)NC(=O)C(C)(C)NC(=O)[C@@H](N)Cc1ccc(O)cc1)[C@@H](C)O)[C@@H](C)O)[C@@H](C)CC)C(=O)N[C@@H](CCC(=O)O)C(=O)N[C@@H](CCCCN)C(=O)N[C@@H](CCCNC(=N)N)C(=O)NC(C)(C)C(=O)N[C@@H](C)C(=O)NC(C)(C)C(=O)N[C@@H](CCC(=O)O)C(=O)N[C@@H](Cc1ccccc1)C(=O)N[C@H](C(=O)N[C@@H](CCC(=O)O)C(=O)N[C@@H](Cc1c[nH]c2ccccc12)C(=O)N[C@@H](CC(C)C)C(=O)N[C@@H](CCCCN)C(=O)N[C@@H](CC(N)=O)C(=O)N[C@H](C(=O)NCC(=O)N1CCC[C@H]1C(=O)N[C@@H](CO)C(=O)N[C@@H](CO)C(=O)NCC(=O)N[C@@H](C)C(=O)N1CCC[C@H]1C(=O)N1CCC[C@H]1C(=O)N1CCC[C@H]1C(=O)N[C@@H](CO)C(N)=O)[C@@H](C)O)[C@@H](C)CC)C(=O)O
B4: exendin-4 peptide analogue SEQ ID NO: 66 (peptide)
peptide: Y[Aib]QGTFTSDLSKQK([γGlu-Palmitoyl])DSRAAQDFIEWLKAGGPSSGAPPPS-NH2
modifications: N-terminus assumed
SMILES: CCCCCCCCCCCCCCCC(=O)N[C@@H](CCC(=O)NCCCC[C@H](NC(=O)[C@H](CCC(N)=O)NC(=O)[C@H](CCCCN)NC(=O)[C@H](CO)NC(=O)[C@H](CC(C)C)NC(=O)[C@H](CC(=O)O)NC(=O)[C@H](CO)NC(=O)[C@@H](NC(=O)[C@H](Cc1ccccc1)NC(=O)[C@@H](NC(=O)CNC(=O)[C@H](CCC(N)=O)NC(=O)C(C)(C)NC(=O)[C@@H](N)Cc1ccc(O)cc1)[C@@H](C)O)[C@@H](C)O)C(=O)N[C@@H](CC(=O)O)C(=O)N[C@@H](CO)C(=O)N[C@@H](CCCNC(=N)N)C(=O)N[C@@H](C)C(=O)N[C@@H](C)C(=O)N[C@@H](CCC(N)=O)C(=O)N[C@@H](CC(=O)O)C(=O)N[C@@H](Cc1ccccc1)C(=O)N[C@H](C(=O)N[C@@H](CCC(=O)O)C(=O)N[C@@H](Cc1c[nH]c2ccccc12)C(=O)N[C@@H](CC(C)C)C(=O)N[C@@H](CCCCN)C(=O)N[C@@H](C)C(=O)NCC(=O)NCC(=O)N1CCC[C@H]1C(=O)N[C@@H](CO)C(=O)N[C@@H](CO)C(=O)NCC(=O)N[C@@H](C)C(=O)N1CCC[C@H]1C(=O)N1CCC[C@H]1C(=O)N1CCC[C@H]1C(=O)N[C@@H](CO)C(N)=O)[C@@H](C)CC)C(=O)O
B5: exendin-4 peptide analogue SEQ ID NO: 63 (peptide)
peptide: Y[Aib]EGTFTSDLSKQK([γGlu-Palmitoyl])DKRAAQDFIEWLKAGGPSSGAPPPS-NH2
modifications: N-terminus assumed
SMILES: CCCCCCCCCCCCCCCC(=O)N[C@@H](CCC(=O)NCCCC[C@H](NC(=O)[C@H](CCC(N)=O)NC(=O)[C@H](CCCCN)NC(=O)[C@H](CO)NC(=O)[C@H](CC(C)C)NC(=O)[C@H](CC(=O)O)NC(=O)[C@H](CO)NC(=O)[C@@H](NC(=O)[C@H](Cc1ccccc1)NC(=O)[C@@H](NC(=O)CNC(=O)[C@H](CCC(=O)O)NC(=O)C(C)(C)NC(=O)[C@@H](N)Cc1ccc(O)cc1)[C@@H](C)O)[C@@H](C)O)C(=O)N[C@@H](CC(=O)O)C(=O)N[C@@H](CCCCN)C(=O)N[C@@H](CCCNC(=N)N)C(=O)N[C@@H](C)C(=O)N[C@@H](C)C(=O)N[C@@H](CCC(N)=O)C(=O)N[C@@H](CC(=O)O)C(=O)N[C@@H](Cc1ccccc1)C(=O)N[C@H](C(=O)N[C@@H](CCC(=O)O)C(=O)N[C@@H](Cc1c[nH]c2ccccc12)C(=O)N[C@@H](CC(C)C)C(=O)N[C@@H](CCCCN)C(=O)N[C@@H](C)C(=O)NCC(=O)NCC(=O)N1CCC[C@H]1C(=O)N[C@@H](CO)C(=O)N[C@@H](CO)C(=O)NCC(=O)N[C@@H](C)C(=O)N1CCC[C@H]1C(=O)N1CCC[C@H]1C(=O)N1CCC[C@H]1C(=O)N[C@@H](CO)C(N)=O)[C@@H](C)CC)C(=O)O
B6: exendin-4 peptide analogue SEQ ID NO: 62 (peptide)
peptide: Y[Aib]EGTFTSDLSIQK([γGlu-Stearoyl])EEEAVKLFIEWLKAGGPSSGAPPPS-NH2
modifications: N-terminus assumed
SMILES: CCCCCCCCCCCCCCCCCC(=O)N[C@@H](CCC(=O)NCCCC[C@H](NC(=O)[C@H](CCC(N)=O)NC(=O)[C@@H](NC(=O)[C@H](CO)NC(=O)[C@H](CC(C)C)NC(=O)[C@H](CC(=O)O)NC(=O)[C@H](CO)NC(=O)[C@@H](NC(=O)[C@H](Cc1ccccc1)NC(=O)[C@@H](NC(=O)CNC(=O)[C@H](CCC(=O)O)NC(=O)C(C)(C)NC(=O)[C@@H](N)Cc1ccc(O)cc1)[C@@H](C)O)[C@@H](C)O)[C@@H](C)CC)C(=O)N[C@@H](CCC(=O)O)C(=O)N[C@@H](CCC(=O)O)C(=O)N[C@@H](CCC(=O)O)C(=O)N[C@@H](C)C(=O)N[C@H](C(=O)N[C@@H](CCCCN)C(=O)N[C@@H](CC(C)C)C(=O)N[C@@H](Cc1ccccc1)C(=O)N[C@H](C(=O)N[C@@H](CCC(=O)O)C(=O)N[C@@H](Cc1c[nH]c2ccccc12)C(=O)N[C@@H](CC(C)C)C(=O)N[C@@H](CCCCN)C(=O)N[C@@H](C)C(=O)NCC(=O)NCC(=O)N1CCC[C@H]1C(=O)N[C@@H](CO)C(=O)N[C@@H](CO)C(=O)NCC(=O)N[C@@H](C)C(=O)N1CCC[C@H]1C(=O)N1CCC[C@H]1C(=O)N1CCC[C@H]1C(=O)N[C@@H](CO)C(N)=O)[C@@H](C)CC)C(C)C)C(=O)O

target: human GLP-1 receptor (human, UniProt P43220 24-463); assay: cell-based or functional assay

Row | Binder | EC50 hGLP-1 R
1 | B1 | 0.0055 nM
2 | B2 | 0.0102 nM
3 | B3 | 0.0038 nM
4 | B4 | 0.0036 nM
5 | B5 | 0.006 nM
6 | B6 | 0.0076 nM

target: T1, human GIP receptor; assay: cell-based or functional assay

Row | Binder | EC50 hGIP R
7 | B1 | 0.008 nM
8 | B2 | 0.0096 nM
9 | B3 | 0.0144 nM
10 | B4 | 0.0826 nM
11 | B5 | 0.0119 nM
12 | B6 | 0.0067 nM

target: human glucagon receptor (human, UniProt P47871 26-477); assay: cell-based or functional assay
Sequence (P47871 26-477): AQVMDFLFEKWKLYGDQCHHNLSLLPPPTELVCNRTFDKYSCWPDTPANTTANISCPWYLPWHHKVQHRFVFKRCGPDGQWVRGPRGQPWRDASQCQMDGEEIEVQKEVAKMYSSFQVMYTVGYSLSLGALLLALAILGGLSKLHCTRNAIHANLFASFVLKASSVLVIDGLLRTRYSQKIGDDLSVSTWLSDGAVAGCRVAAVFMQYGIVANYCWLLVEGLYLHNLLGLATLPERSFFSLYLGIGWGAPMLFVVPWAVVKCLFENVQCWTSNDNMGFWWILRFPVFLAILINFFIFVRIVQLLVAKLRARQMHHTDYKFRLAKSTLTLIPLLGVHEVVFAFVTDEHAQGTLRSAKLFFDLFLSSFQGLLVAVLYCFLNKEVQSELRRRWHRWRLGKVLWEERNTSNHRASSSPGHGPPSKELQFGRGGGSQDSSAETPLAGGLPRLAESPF

Row | Binder | EC50 hGLUC R
13 | B1 | 0.139 nM
14 | B2 | 75.1 nM
15 | B3 | 0.0669 nM
16 | B4 | 0.0052 nM
17 | B5 | 1.67 nM
18 | B6 | > 1000 nM
